Laboratory results taken from the DeepSol protein solubility set.

experiment: soluble on expression in E. coli; label from the status in PepcDB or PDB records

Sequence | soluble on expression in E. coli
MNNLISQDKRISSNPVAKIIYGDPVTFLPHLPRKSVVHCSKIWSCRKRITVEYLQHIVEQKNGKERVPILWHFLQKEAELRLVKFLPEILALQRDLVKQFQNVQQVEYSSIRGFLSKHSSDGLRQLLHNRITVFLSTWNKLRRSLETNGEINLPKDYCSTDLDLDTEFEILLPRRRGLGLCATALVSYLIRLHNEIVYAVEKLSKENNSYSVDAAEVTELHVISYEVERDLTPLILSNCQYQVEEGRETVQEFDLEKIQRQIVSRFLQGKPRLSLKGIPTLVYRHDWNYEHLFMDIKNKMAQDSLPSSVISAISGQLQSYSDACEVLSVVEVTLGFLSTAGGDPNMQLNVYTQDILQMGDQTIHVLKALNRCQLKHTIALWQFLSAHKSEQLLRLHKEPFGEISSRYKADLSPENAKLLSTFLNQTGLDAFLLELHEMIILKLKNPQTQTEERFRPQWSLRDTLVSYMQTKESEILPEMASQFPEEILLASCVSVWKTAAVLKWNREMR | not soluble
MDWGTELWDQFEVLERHTQWGLDLLDRYVKFVKERTEVEQAYAKQLRSLVKKYLPKRPAKDDPESKFSQQQSFVQILQEVNDFAGQRELVAENLSVRVCLELTKYSQEMKQERKMHFQEGRRAQQQLENGFKQLENSKRKFERDCREAEKAAQTAERLDQDINATKADVEKAKQQAHLRSHMAEESKNEYAAQLQRFNRDQAHFYFSQMPQIFDKLQDMDERRATRLGAGYGLLSEAELEVVPIIAKCLEGMKVAANAVDPKNDSHVLIELHKSGFARPGDVEFEDFSQPMNRAPSDSSLGTPSDGRPELRGPGRSRTKRWPFGKKNKTVVTEDFSHLPPEQQRKRLQQQLEERSRELQKEVGQREALKKMKDVYEKTPQMGDSASLEPQIAETLSNIERLKLEVQKYEAWLAEAESRVLSNRGDSLSRHARPPDPPASAPPDSSSNSASQDTKESSEEPPSEESQDTPIYTEFDEDFEEEPTSPIGHCVAIYHFEGSSEGTISMAEGEDLSLMEEDKGDGWTRVRRKEGGEGYVPTSYLRVTLN | soluble
MGEYYHATVNGVVEYGAFVDLSEHVSGLIHESTYSGDPDLAVDDDVIVHLSAVRDNGDLSFEFVDPEEYRTEQRSLEHHHHHH | not soluble
MQKRDGHIHTPFCPHGSNDTLRQYAEEALKKGFESITFTEHAPLPPSFTDPTPLKDSAMAQASLERYIHEISGLKKEYRGQLSIRTGLEVDYIAEFEDEITLFLDTYGPYLDDSILSVHFLRTDSSYLCLDYDEHTFKELISACGSIEAVYEQYYRSIYSSIVASLGVYKPKRVGHITLVQKFIKLFPYSMSEHIRGLVSLCLNAIEENGMELDFNTSGLRKTYAGGIYIEDWMLNEAKQKKIPLVFGSDAHQAGDVGYAYEAFLERCLEHHHHHH | not soluble
MENTETLIVEQLKIGNENAYRYIYDHHYALLCYVANGYLKDQFLSETIVGDTIFHLWEIRETLDISVSIRSYLLRAVRNRCINYLNSEREKREIAFSALMPDEITDDKIILSDSHPLGILLERELENEIYKAIDKLPDECRRVFAKSRFEGKSYEEISGELGISINTVKYHIKNALASLHAHLSKYLISLLLFFFR | not soluble
MHHFSTGSSSAIIASSSSSSSSSNGYGHSPRDLLTGAAVANGGGGGFGGVAGVAFATTSPPTPVNLDVQRIDCTDETTVVMVKLTDEMFAALQESQRSGKPLRINVNDKEGRVEIGDGTASSKTNNTFYFQKQTVPEQTDTLVHSGGGVRNVGTYKTKYQIQATDRSFQETKKRAELRAEVEKSRGTKQMKKSGVTSSSSRYHNSSNSTPRSMNSAPNSSRVSPSFMSSSSSKASTSHVTTNNSKGTPNNGSESKKIDMTPQLMKHSIKKRIIHLIVTQKYSNWEEVYKKLKSDGLPEEKDEIEKIRSCVEEVSETRPEMSVMSLRTSFLSEVDQRWMFFNQEEKSHVRRLCNSGSRVGPTDNNFAPLRKKGMERITASSKTEKDKVKEKLEEAAKIPSPPKDQKSLPSIVEEDDYYTAPPEPANKRRAHNLAPPPPPPVQVVTPQTTSSQTETGPLPPKRTKRPESSSPQLERSSQPASKLNPIKLAATIAMQPIPKCDPPPPPPSRDTYHHNVASVAVNGGGSTASSRVSSPASSLSSPSQPSCNWEKQFGDIKTLSEAEAYFKQFHKEYPLYMECHEMLTKVSSEFRGLEVKLLTAVALSKTSPSPQNMQNVKQIEKNIQNRYAHFEKDPEFMKARQRHTDLRSKLNVLKTRIGSWEKMRRQSSTNV | soluble
HIWLFFIEEGKNHYRVEFRSNGINVREVALKYGGGGHIQASGAVLKSKRDIIRVVQD | not soluble
GNGIPPYAGAGDPARFTFNIVQNAKYWDKEHQYESLSDIRLHKFNAPAPGTFDFDESPVDGKKLELVSSKKIGFDGKFAGIAHDGEQFGLVTQDGSLFFTKDFDKATSFAHLDVPNGSDIHNTVDAAFFEPGGLAGIAQNKTLYGALVTKDVDDYIAWKDFLESSGDVMPLFDSKGRPELRTIRARMQYTMSVASDAKSDTFITVSVPHERAEQIVVSEFSKKDNKLVREGVLDGDYYPVGADMRGDVLYLLSKQHNCLVRVNMKDFTVKDAANLPVEGSDLAIVKDRAYILDGDTVHEVKL | not soluble
MGSDKIHHHHHHMQIVQIEQAPKDYISDIKIIPSKSLLLITSWDGSLTVYKFDIQAKNVDLLQSLRYKHPLLCCNFIDNTDLQIYVGTVQGEILKVDLIGSPSFQALTNNEANLGICRICKYGDDKLIAASWDGLIEVIDPRNYGDGVIAVKNLNSNNTKVKNKIFTMDTNSSRLIVGMNNSQVQWFRLPLCEDDNGTIEESGLKYQIRDVALLPKEQEGYACSSIDGRVAVEFFDDQGDDYNSSKRFAFRCHRLNLKDTNLAYPVNSIEFSPRHKFLYTAGSDGIISCWNLQTRKKIKNFAKFNEDSVVKIACSDNILCLATSDDTFKTNAAIDQTIELNASSIYIIFDYEN | not soluble
MTIASITLTNNRLEWQSLLPNTTPYEALFATASQLEPVAFSAYQPRLENGMTLFCHPQSQPRFMLIKAQESTDYLALIAQAVKALQPEASNLLGGDYLVHGHHVTWQSAQHGDERFAAQSTCLYQEWVEPEQLFGCVRMYKDQITLQPGLVHQVNGGVLILSVRALQAQPLMWLRLKQMIVQQRFDWLSTDETRPLPVHIPSMPLDLRLILVGDRLGLADFHDMEPELGDLAIYGEFEAELPLVDIEGMALWCGYINTLLQQKQLPALSADAWPVLFRQAVRYSGDQGSLPLCPQWLTQQLAEAALYAENDTISANALEAALNARNWRQNYLAERMQDEIELGQILVETEGHVVGQINALSVLEYPGHPHAFGEPARISCVVHLGDGEFVDVERKAELGGNIHAKGMMIMQAFLMSELELDQPLPFSASIVFEQSYGEVDGDSASLAELCALVSALSQQPINQQIAVTGSVDQFGNVQPIGGVNEKIEGFFETCQRRGLTGNQGVILPTTNVRHLCLNQAVVEAVQKGQFHLWAVDTVAEALPLLTGVTYDDEQQPSLLGAIQERIAQINPQDKRRWPWPLRWLNWFNQG | soluble
MGSDKIHHHHHHMLRLSEIKLPLDHPPEAITTAILQKLKIQADELLGYEIFKRSYDARKKDAIVWVYILDLKVKNEAQLLKRFQKDPHVNPTPDMSYRVVAQAPEGLTERPVVIGAGPCGMFAALTLAQMGFRPILFERGKTVRDRTADTFAFWKKRGEFNPESNAQFGEGGAGTFSDGKLYSQVRDPQYYGRKVLTELVNSGANPEILYVNKPHIGTFKLVGVVQQMRARIEALGGEIHFQSRVESLHIEDRQVRGLRLTNGDYIPARHVVLAIGHSARDTFQMLFDQGVYIEAKPFSIGFRIEHPQPLIDRARFGPFAGHKSLGAADYKLVHHCQNGRTVYSFCMCPGGLVVAATSEPGRVVTNGMSQYSRNERNANSGIVVGITPEDYPGHPLAGIDLQRRLEAKAFELGGGTYEAPGQLVGDFLAGRPSQHLGTVRPSYAPGVHLTDLSESLPDYAIAAIREALPAFNRQIQGFALPDAMLTGVETRTSSPVRIKRGEDFQSLNTTGLFPAGEGAGYAGGILSAGIDGIKVAEAVALAMLRSQPQTV | not soluble
MRKISEMPKFERPREKLLERGVGYLSDLELLAVLIGNGTKDCSVMNVAGKVLKLLDKGCDRVSARVLQEIEGVGPAKSAVIAAALEFARRRIRPEGIKITSACDILPLISYLANRKQEHFVCVSLNGASEVIATRVVSVGLVNNVQVHPREVFADPITDRATAVIVAHNHPSGSVAPSQEDIEVTKRLKDAGNTLGIKLIDHIIFSRKGYFSFLENGQMPD | soluble
